Data published in paper PMC8347636.

B1: CD24: N36Q (protein)
parent chain: MGRAMVARLGLGLLLLALLLPTQIYSSETTTGTSSNSSQSTSNSGLAPNPTNATTKAAGGALQSTASLFVVSLSLLHLYS
B2: CD24: N36,52Q (protein)
parent chain: MGRAMVARLGLGLLLLALLLPTQIYSSETTTGTSSNSSQSTSNSGLAPNPTNATTKAAGGALQSTASLFVVSLSLLHLYS
B3: CD24: kifunensine, wild type CD24 (protein)
parent chain: MGRAMVARLGLGLLLLALLLPTQIYSSETTTGTSSNSSQSTSNSGLAPNPTNATTKAAGGALQSTASLFVVSLSLLHLYS
B4: CD24: kifunensine, WT-CD24 (protein)
parent chain: MGRAMVARLGLGLLLLALLLPTQIYSSETTTGTSSNSSQSTSNSGLAPNPTNATTKAAGGALQSTASLFVVSLSLLHLYS
B5: CD24: N52Q (protein)
parent chain: MGRAMVARLGLGLLLLALLLPTQIYSSETTTGTSSNSSQSTSNSGLAPNPTNATTKAAGGALQSTASLFVVSLSLLHLYS

Columns and labels:
[1] = immunofluorescence, % cells with plasma membrane CD24, MDA-MB-231; conditions: glycan lost; control: wild type ER-tag CD24
[2] = immunofluorescence, % cells with plasma membrane CD24, MCF-7; conditions: glycan lost; control: wild type ER-tag CD24
[3] = immunofluorescence, % cells with plasma membrane CD24, Hs578T; conditions: glycan lost; control: wild type ER-tag CD24
[4] = immunofluorescence, % cells with plasma membrane CD24, HEK293T; conditions: glycan lost; control: wild type ER-tag CD24
[5] = immunofluorescence, nuclear localisation, all cell lines; conditions: glycan lost; control: wild type ER-tag CD24
[6] = confocal immunofluorescence, % cells with plasma membrane CD24, Hs578T; conditions: glycan changed form; control: untreated cells, same construct
[7] = confocal immunofluorescence, plasma membrane vs cytoplasm, HEK293T; conditions: glycan changed form; control: untreated cells, same construct
[8] = confocal immunofluorescence, plasma membrane vs cytoplasm, MCF-7; conditions: glycan changed form; control: untreated cells, same construct
[9] = confocal immunofluorescence, % cells with plasma membrane CD24, MDA-MB-231; conditions: glycan changed form; control: untreated cells, same construct

Protein | localisation_or_trafficking [1] | localisation_or_trafficking [2] | localisation_or_trafficking [3] | localisation_or_trafficking [4] | localisation_or_trafficking [5] | localisation_or_trafficking, other: % decrease in cells with membrane CD24 [6] | localisation_or_trafficking [7] | localisation_or_trafficking [8] | localisation_or_trafficking [9]
B1 | no change | no change | decreases | decreases | no change | – | – | – | –
B2 | decreases | no change | decreases | decreases | no change | – | – | – | –
B3 | – | – | – | – | – | decreases | decreases | no change | –
B4 | – | – | – | – | – | – | – | – | decreases
B5 | decreases | no change | decreases | decreases | no change | – | – | – | –
